Data taken from patent US20230181770A1, “COMPOSITIONS AND METHODS OF TARGETING AND IMAGING AGED MICROGLIA WITH Aß PEPTIDE AMINO ACID RESIDUES FOR V-DOMAIN BINDING OF RAGE” (Neurosn, Inc., priority 2018, published 2023).

Target: T1, RAGE receptors (Mus musculus, UniProt Q62151)
T1 construct: from tissue; host or cells: mouse brain (APPSWE Model 2789 and C57BL/6 mice), after tail vein injection
Experiment: Brain autoradiography (AR) binding localization after tail vein injection in AD and normal mice
Format: in vivo
Conditions: 50 μCi per tail vein at day 0, sacrificed day 3
Excerpt: Four APPSWE Model 2789 mice (AD) and 4 C57BL/6 mice (normal) receive an injection of 50 μCi of Sn-IBD-Aβ(16-23) per tail vein at day 0.
Additionally, four APPSWE Model 2789 mice (AD) and 4 C57BL/6 mice (normal) receive an injection of 50 μCi of Sn-IBD-K-Aβ(23-17) per tail vein at day 0.
All the animals are sacrificed on day 3 post Sn-Aβ-AA injection and brains preserved and autoradiography (AR) binding localization in AD-specific areas mapped.
Findings—Histopathological comparison and autoradiography dosimetry are measured in each mouse brain in comparative anatomic regions.

T1 sequence (Q62151 23-402): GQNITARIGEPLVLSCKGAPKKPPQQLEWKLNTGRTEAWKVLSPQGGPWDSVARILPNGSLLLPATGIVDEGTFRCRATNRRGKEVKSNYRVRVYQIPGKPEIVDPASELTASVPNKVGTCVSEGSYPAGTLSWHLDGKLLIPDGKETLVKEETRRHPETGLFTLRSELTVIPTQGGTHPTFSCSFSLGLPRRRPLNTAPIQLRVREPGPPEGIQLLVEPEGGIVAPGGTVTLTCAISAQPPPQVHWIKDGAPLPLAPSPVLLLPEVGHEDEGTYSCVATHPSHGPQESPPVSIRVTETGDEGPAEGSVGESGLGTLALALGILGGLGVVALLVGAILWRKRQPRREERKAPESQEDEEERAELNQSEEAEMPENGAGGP

AR distribution of RAGE binding in brain (RAGE expressing APPSWE Model 2789 mice (AD)): increase in RAGE binding
AR distribution of RAGE binding in cortical and hippocampal areas (normal C57BL/6 mice): minimal
Substance: Sn-IBD-Aβ(16-23) (KLVFFAED; Amyloid-beta protein 42 Sn-IBD conjugate; UniProt P05067 687-694, looked up, fragment)
